{
  "source": "patent US11198713B2",
  "about": "“Agents modulating beta-catenin functions and methods thereof” (FOG PHARMACEUTICALS, INC., priority 2017, dated 2021)",
  "key": {"[1]": {"target": "T1, biotinylated beta-catenin (UniProt P35222 134-665, limits assumed, biotinylated (site not stated))", "T1 construct": "also called beta-catenin (SPR); armadillo domain of β-catenin", "T1 sequence (looked up)": "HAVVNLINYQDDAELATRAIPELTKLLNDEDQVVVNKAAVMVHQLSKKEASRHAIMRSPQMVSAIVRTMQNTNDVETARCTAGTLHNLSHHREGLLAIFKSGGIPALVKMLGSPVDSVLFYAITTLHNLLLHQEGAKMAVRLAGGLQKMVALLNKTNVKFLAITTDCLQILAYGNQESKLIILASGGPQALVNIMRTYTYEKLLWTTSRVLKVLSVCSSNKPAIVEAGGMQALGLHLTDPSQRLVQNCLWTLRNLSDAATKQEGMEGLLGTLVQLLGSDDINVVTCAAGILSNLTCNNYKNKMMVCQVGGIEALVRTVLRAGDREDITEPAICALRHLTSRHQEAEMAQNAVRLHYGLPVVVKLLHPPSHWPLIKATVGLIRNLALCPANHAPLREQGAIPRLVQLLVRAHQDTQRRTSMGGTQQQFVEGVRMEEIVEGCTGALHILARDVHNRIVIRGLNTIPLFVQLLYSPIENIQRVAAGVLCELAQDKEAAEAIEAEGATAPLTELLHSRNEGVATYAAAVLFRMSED", "assay": "SPR (Biacore, biotinylated beta-catenin)", "experimental": "(§1) Additionally or alternatively, binding to beta-catenin may be measured by Surface Plasmon Resonance. In an exemplary assay, approximately 6 nmol dried peptide diluted in buffer (50 mM Tris pH 8.0, 300 mM NaCl, 2% glycerol, 0.5 mM TCEP, 0.5 mM EDTA, 0.005% Tween-20, 1 mg/mL CM Dextran, 0.02% w/v sodium azide) was assayed on a Biacore X100 using the Biacore Biotin CAPture Kit (GE Healthcare) and biotinylated beta-catenin. Results were analyzed using the Biacore X100 Evaluation Software."}, "full-length beta-catenin [2]": {"target": "T2, full-length beta-catenin (UniProt P35222 2-781, limits assumed)", "T2 construct": "mature; also called full-length ß-Catenin; β-catenin", "T2 sequence (looked up)": "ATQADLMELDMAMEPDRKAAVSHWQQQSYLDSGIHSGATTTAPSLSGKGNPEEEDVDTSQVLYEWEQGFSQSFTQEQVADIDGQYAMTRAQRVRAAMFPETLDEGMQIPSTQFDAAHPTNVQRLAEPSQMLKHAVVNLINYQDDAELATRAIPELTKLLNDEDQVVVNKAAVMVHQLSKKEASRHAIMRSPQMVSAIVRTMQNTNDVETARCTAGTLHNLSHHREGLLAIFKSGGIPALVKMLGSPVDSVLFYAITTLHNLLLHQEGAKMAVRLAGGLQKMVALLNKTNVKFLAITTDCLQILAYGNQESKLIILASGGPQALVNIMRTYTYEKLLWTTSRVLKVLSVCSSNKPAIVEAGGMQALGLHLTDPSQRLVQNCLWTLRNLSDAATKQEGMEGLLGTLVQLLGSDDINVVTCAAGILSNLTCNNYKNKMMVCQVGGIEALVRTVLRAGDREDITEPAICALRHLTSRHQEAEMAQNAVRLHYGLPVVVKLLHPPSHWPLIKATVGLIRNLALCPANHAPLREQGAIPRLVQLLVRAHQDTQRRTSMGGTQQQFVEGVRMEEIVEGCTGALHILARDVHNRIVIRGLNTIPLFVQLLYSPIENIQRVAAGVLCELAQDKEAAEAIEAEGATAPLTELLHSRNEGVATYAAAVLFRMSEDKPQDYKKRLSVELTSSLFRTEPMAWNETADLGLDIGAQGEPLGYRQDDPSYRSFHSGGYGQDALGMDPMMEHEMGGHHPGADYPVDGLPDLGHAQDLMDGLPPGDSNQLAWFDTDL", "assay": "Axin competition fluorescence polarization; 15 nM full-length beta-catenin, 20 nM FITC-StAx-33 probe displaced by titrated peptide"}, "full-length beta-catenin [3]": {"target": "T2, full-length beta-catenin", "assay": "competition FP, grade of FP EC50 (+++: <=100 nM)", "procedure,_shortened": "(§2)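 Compound 3-fold serially diluted from 5 µM in Tris pH 8.0, 250 mM NaCl buffer, added to premixed 15 nM full-length β-catenin and 20 nM FITC-labelled stapled axin-site peptide probe. Incubated 15 min in the dark, polarization read in duplicate.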"}, "[4]": {"target": "T1, biotinylated beta-catenin", "assay": "Table 3 'Binding Kd (nM)'; method not stated there (SPR in Example 2)", "experimental": "as §1"}, "full-length beta-catenin [5]": {"target": "T2, full-length beta-catenin", "assay": "competition FP", "experimental": "(§3) In some embodiments, a competition fluorescence polarization assay is used to assess binding of provided compounds to beta-catenin. In an exemplary procedure, solutions of provided compounds, e.g., provided stapled peptides, were prepared in a buffer (e.g., 50 mM Tris pH 8.0, 250 mM NaCl, 2% glycerol, 0.5 mM EDTA, 0.02% w/v sodium azide) using a 3-fold serial dilution from 5 µM. Probe solution (15 nM full-length ß-Catenin, 20 nM FITC labeled peptide in buffer) was prepared and incubated for a period of time, e.g., 5 minutes, and the a volume, e.g., 40 µL per well plated in suitable plate, e.g., a black polystyrene 384-well plate (Corning). Equal volume of the serial diluted peptide was added to the plate and incubated protected from light for 15 minutes prior to read. Reads were performed on a Spectramax M5 (Molecular Devices) in duplicate. Suitable probe was FITC-PEG1-PQ-S5-ILD-S5-HVRRVWR (SEQ ID NO: 1) (hydrocarbon staple formed by two S5 via olefin metathesis) and/or FITC-bA-PQ-S5-ILD-S5-HVRRVWR (SEQ ID NO: 3) (hydrocarbon staple formed by two S5 via olefin metathesis). […] Another peptide, FPO217c (Ac-AR_8ILDAHIM$B5$RVW (SEQ ID NO: 280), with N-terminal proline removed and valine replaced with isoleucine compared to FP0025c) was prepared."}, "full-length beta-catenin [6]": {"target": "T2, full-length beta-catenin", "assay": "competition FP; amino staple (acyclic)", "experimental": "as §3"}, "full-length beta-catenin [7]": {"target": "T2, full-length beta-catenin", "assay": "competition FP, grade of FP EC50 (+: 500-5000 nM)", "procedure,_shortened": "as §2"}, "full-length beta-catenin [8]": {"target": "T2, full-length beta-catenin", "assay": "competition FP, grade of FP EC50 (+: 500-5000 nM); competition FP vs FITC probe, 15 nM full-length beta-catenin, peptide diluted from 5 µM; grade + (500-5000 nM EC50)", "experimental": "as §3"}},
  "note": "Bridge positions count the residues as written; N and C are the ends. Square brackets hold non-standard residues; d marks the D form. MB = Monomer B = PyrS, Alloc-pyrrolidine stapling residue (allyl carbamate on pyrrolidine N); MI = Monomer I = ReN, acyclic amine-bearing olefin stapling residue; R8 = C=CCCCCCC[C@@](C)(N)C(=O)O; R5 = C=CCCC[C@@](C)(N)C(=O)O",
  "data": [
    {"binder": "AXILDAHIXRVW (not fully specified; Ac-A-MG-I-L-D-A-H-I-MB-R-V-W-NH2; carbamate staple MG/MB)", "note": "[FP0597c]", "values": [
      {"measurement": "Kd", "setting": "[1]", "value": 4, "unit": "nM"},
      {"measurement": "EC50 (read off the curve)", "setting": "full-length beta-catenin [2]", "value": "~60", "unit": "nM"},
      {"measurement": "FP EC50", "setting": "full-length beta-catenin [3]", "value": "≤ 100", "unit": "nM"},
      {"measurement": "Kd", "setting": "[4]", "value": 4, "unit": "nM"}
    ]},
    {"binder": "Ac-A[R8]ILDAHI[MB]RVW-NH2 (staple 2-9; also: Isomer 2, staple olefin E/Z not assigned, also called FPO217c isomer 2; FP00217c Isomer 2)", "note": "[FP0217c Isomer 2]", "values": [
      {"measurement": "Kd", "setting": "[1]", "value": 2, "unit": "nM"},
      {"measurement": "fold better potency than FP0217c Isomer 1", "setting": "full-length beta-catenin [5]", "value": "> 10", "unit": "fold"},
      {"measurement": "EC50 (read off the curve)", "setting": "full-length beta-catenin [2]", "value": "~70", "unit": "nM"},
      {"measurement": "FP EC50", "setting": "full-length beta-catenin [3]", "value": "≤ 100", "unit": "nM"},
      {"measurement": "Kd", "setting": "[4]", "value": 4, "unit": "nM"}
    ]},
    {"binder": "Ac-PQ[R5]ILD[MI]HVRRVWR-NH2 (staple 3-7; also: amino staple (-N(R')-), from carbamate staple by metathesis then Pd(0) CO2 extrusion, also called FP-0777 (amino staple))", "note": "[FP0777a]", "values": [
      {"measurement": "EC50", "setting": "full-length beta-catenin [6]", "value": 4750, "unit": "nM"},
      {"measurement": "FP EC50", "setting": "full-length beta-catenin [7]", "value": "500 to 5000", "unit": "nM"}
    ]},
    {"binder": "Ac-PQ[MI]ILD[R5]HVRRVWR-NH2 (staple 3-7; also: amino staple (-N(R')-), from carbamate staple by metathesis then Pd(0) CO2 extrusion, also called FP-0783 (amino staple))", "note": "[FP0783a]", "values": [
      {"measurement": "EC50", "setting": "full-length beta-catenin [6]", "value": 1400, "unit": "nM"},
      {"measurement": "FP EC50", "setting": "full-length beta-catenin [7]", "value": "500 to 5000", "unit": "nM"}
    ]},
    {"binder": "AXILDAHIXRVW (not fully specified; Ac-A-R6-I-L-D-A-H-I-MF-R-V-W-NH2; amino staple R6/MF)", "note": "[FP0502a]", "values": [
      {"measurement": "FP EC50", "setting": "full-length beta-catenin [8]", "value": "500 to 5000", "unit": "nM"}
    ]},
    {"binder": "AXILDAHIXRVW (not fully specified; Ac-A-MI-I-L-D-A-H-I-S5-R-V-W-NH2; amino staple MI/S5)", "note": "[FP0506a]", "values": [
      {"measurement": "FP EC50", "setting": "full-length beta-catenin [8]", "value": "500 to 5000", "unit": "nM"}
    ]}
  ]
}
